According to paper PMC9929644 (The EMBO Journal, 2023):

Legend:
GST‐LMO4 = GST‐LMO4 (UniProt P61968); assay: ITC
MBP‐Jacob‐262‐532 = target: T1, MBP‐Jacob‐262‐532 (UniProt Q9EPI6 262-532); assay: pull-down
T1 sequence (looked up): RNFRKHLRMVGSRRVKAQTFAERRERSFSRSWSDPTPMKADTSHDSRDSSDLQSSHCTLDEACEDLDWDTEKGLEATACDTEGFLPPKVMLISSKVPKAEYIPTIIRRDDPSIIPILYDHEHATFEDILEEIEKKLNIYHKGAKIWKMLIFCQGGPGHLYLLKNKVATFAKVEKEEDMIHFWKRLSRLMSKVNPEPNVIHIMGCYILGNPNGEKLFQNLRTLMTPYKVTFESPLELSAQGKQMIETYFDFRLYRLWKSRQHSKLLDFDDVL

In the case of “Jacob (protein of the ITC experiment) (from UniProt Q9EPI6 1-532) (natural protein)”, the Kd (GST‐LMO4) is reported as 370 nM.

B1: bZIP domain of CREB (His‐SUMO‐CREB‐294‐341) (domain or fragment, UniProt P15337-1 294-341, looked up)
chain: REAARECRRKKKEYVKCLENRVAVLENQNKTLIEELKALKDLYCHKSD
B1: binds (MBP‐Jacob‐262‐532).
